Target: human recombinant prion protein (hrPrP), amino acid residues 23-231 of human PrPC (human) (UniProt P04156)
Test: cell-based or functional assay

“α-2 macroglobulin (α2M), purified preparation” showed a protection of PrP from PK degradation of 4 µg, a protection of PrP from PK degradation in a mixture with tubulin of 16 µg and a protection of PrP from PK proteolysis (immunoblot with mAb 34C9) of 5 µg. For the same substance, the protection of rhuPrP from PK degradation, dose dependence was greater than 6 µg.
